# Data as given in US20230181729A1 (published 2023).
# T1: PRAME (PRAME-004) peptide on HLA-A*02:01 (human)
# T1 peptide: SLLQHLIGL
# Molecular target: T1, PRAME (PRAME-004) peptide on HLA-A*02:01
# Assay: cytokine release
row,binding result,Binder
1,recognises,"R16P1E8 (TCR, V domains shown) Valpha: QKEVEQDPGPLSVPEGAIVSLNCTYSNSAFQYFMWYRQYSRKGPELLMYTYSSGNKEDGRFTAQVDKSSKYISLFIRDSQPSDSATYLCAMSEAAGNKLTFGGGTRVLVKP Vbeta: EAGVAQSPRYKIIEKRQSVAFWCNPISGHATLYWYQQILGQGPKLLIQFQNNGVVDDSQLPKDRFSAERLKGVDSTLKIQPAKLEDSAVYLCASSYTNQGEAFFGQGTRLTVV"
2,recognises,"R17P1D7 (TCR, V domains shown) Valpha: AQTVTQSQPEMSVQEAETVTLSCTYDTSESDYYLFWYKQPPSRQMILVIRQEAYKQQNATENRFSVNFQKAAKSFSLKISDSQLGDAAMYFCAYRWAQGGSEKLVFGKGTKLTVNP Vbeta: EADIYQTPRYLVIGTGKKITLECSQTMGHDKMYWYQQDPGMELHLIHYSYGVNSTEKGDLSSESTVSRIRTEHFPLTLESARPSHTSQYLCATELWSSGGTGELFFGEGSRLTVL"
3,recognises,"R17P1A9 (TCR, V domains shown) Valpha: QKEVEQNSGPLSVPEGAIASLNCTYSDRGSQSFFWYRQYSGKSPELIMSIYSNGDKEDGRFTAQLNKASQYVSLLIRDSQPSDSATYLCAVLNQAGTALIFGKGTTLSVSS Vbeta: DSGVTQTPKHLITATGQRVTLRCSPRSGDLSVYWYQQSLDQGLQFLIQYYNGEERAKGNILERFSAQQFPDLHSELNLSSLELGDSALYFCASSAETGPWLGNEQFFGPGTRLTVL"
